Consider three molecules from patent US20180057604A1 (Genentech, published 2018).

For test [1], the target named is T1, cyno TfR extracellular domain (analogous construct to human TfR ecd) (cynomolgus monkey, UniProt Q5RDH6 87-760 (Pongo abelii entry)).
T1 construct: also called cynoTfR ecd
T1 chain: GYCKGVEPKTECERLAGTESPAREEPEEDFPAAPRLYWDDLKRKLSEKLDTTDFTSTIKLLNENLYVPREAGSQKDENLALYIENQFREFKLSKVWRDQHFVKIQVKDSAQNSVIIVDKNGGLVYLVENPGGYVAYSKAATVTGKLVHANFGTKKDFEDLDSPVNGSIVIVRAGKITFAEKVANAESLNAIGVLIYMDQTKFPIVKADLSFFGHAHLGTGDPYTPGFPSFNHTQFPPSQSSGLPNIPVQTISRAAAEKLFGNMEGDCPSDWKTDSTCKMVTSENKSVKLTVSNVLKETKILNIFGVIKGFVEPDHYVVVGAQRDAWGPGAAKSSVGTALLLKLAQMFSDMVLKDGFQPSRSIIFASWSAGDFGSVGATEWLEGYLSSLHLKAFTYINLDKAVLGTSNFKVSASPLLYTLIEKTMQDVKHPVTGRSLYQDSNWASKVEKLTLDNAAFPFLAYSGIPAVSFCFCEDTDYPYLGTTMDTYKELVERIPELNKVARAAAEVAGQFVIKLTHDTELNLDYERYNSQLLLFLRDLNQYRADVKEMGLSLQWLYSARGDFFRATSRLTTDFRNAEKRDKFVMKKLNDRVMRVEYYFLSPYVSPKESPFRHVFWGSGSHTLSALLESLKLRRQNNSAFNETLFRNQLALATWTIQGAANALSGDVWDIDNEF
Put plainly: SPR, Fab. (In general: SPR reads the build-up and loss of mass on a sensor chip optically.)
Description: (§1) Antibody affinities were measured using surface plasmon resonance (“SPR”) (Biacore™, GE Healthcare). Anti-His antibody (Qiagen) was coupled onto four different flow cells of a BIACORE™ CM5 sensor chip (Biacore, Inc., Piscataway, N.J.) at between 6000 and 8000 RU. Immobilization was achieved by random coupling through amino groups using a protocol provided by the manufacturer. 10×HBS-P (Biacore, Inc., Piscataway, N.J.) was diluted in water and served as the dilution and running buffer. Purified human or cyno TfR was captured, followed by a 3-fold dilution series of IgG or Fab that was injected at a flow rate of 30 ml/min using the single cycle kinetics method. Affinity constants were determined using a simple 1:1 Langmuir binding model or using a steady state model when kₒₙ or koff was beyond the detection limit. The equilibrium dissociation constant (KD) was calculated as the ratio of association rate constant (kₒₙ) and dissociation rate constant (koff).
(§2) These variants were screened as IgG by ELISA and SPR to identify positions important for binding to human and cyno TfR; the monovalent affinity of selected variants as Fab was also determined. […] Plates were washed with PBS/0.05% Tween 20 and blocked using Superblock blocking buffer in PBS (Thermo Scientific, Hudson, N.H.). Supernatants containing expressed IgG were diluted serially 1:5 and added to the plate for 1 h. […] Plates were washed with PBS/0.05% Tween 20 and 1:1000 diluted HRP-Goat-anti kappa (Southern Biotech) was added the plate and incubated for 1 h at room temperature. Plates were washed with PBS/0.05% Tween 20 and detected using TMB substrate (BioFX Laboratories, Owings Mills). Binding was also assessed by SPR, as described above.

The target in test [2] is T2, human TfR extracellular domain with N-terminal His tag (human, UniProt P02786 89-760).
T2 construct: Biotinylated in some assays; also called huTfR; HuTfR
Put plainly: SPR, Fab.
Target sequence in this assay (P02786 89-760 G142S): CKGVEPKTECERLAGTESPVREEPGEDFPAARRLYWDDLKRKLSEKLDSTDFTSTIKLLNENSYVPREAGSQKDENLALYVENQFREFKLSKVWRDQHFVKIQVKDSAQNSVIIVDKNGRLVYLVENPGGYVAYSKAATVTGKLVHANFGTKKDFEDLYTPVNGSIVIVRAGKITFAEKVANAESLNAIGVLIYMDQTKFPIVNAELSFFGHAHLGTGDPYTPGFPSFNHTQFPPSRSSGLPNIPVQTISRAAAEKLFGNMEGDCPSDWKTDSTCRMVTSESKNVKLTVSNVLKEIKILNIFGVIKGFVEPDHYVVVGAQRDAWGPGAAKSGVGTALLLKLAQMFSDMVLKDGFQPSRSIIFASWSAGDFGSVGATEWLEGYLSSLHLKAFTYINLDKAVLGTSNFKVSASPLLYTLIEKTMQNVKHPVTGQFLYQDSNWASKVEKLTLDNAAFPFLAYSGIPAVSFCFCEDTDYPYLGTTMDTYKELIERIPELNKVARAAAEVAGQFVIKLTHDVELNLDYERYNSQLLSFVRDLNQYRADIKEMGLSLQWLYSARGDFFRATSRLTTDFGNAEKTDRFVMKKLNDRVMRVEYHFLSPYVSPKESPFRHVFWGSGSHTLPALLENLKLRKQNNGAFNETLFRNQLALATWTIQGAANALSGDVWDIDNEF
Description: as §1, §2

Test [3] has as its target T1, cyno TfR extracellular domain …. Put plainly: SPR, KD on cyno TfR over KD on human TfR.
Test [4] shares this target. Put plainly: SPR, KD on cyno TfR over KD on human TfR.
Description: as §1
(§3) In both cases, the SPR experiments were performed as described above.
Test [5] has the same target. Put plainly: SPR, TfR captured by anti-His, Fab injected.
The target in test [6] is T2, human TfR extracellular domain with …. Put plainly: SPR, TfR captured by anti-His, Fab injected.
Target sequence in this assay (P02786 89-760 G142S): as above
Test [7] addresses T1, cyno TfR extracellular domain …. Put plainly: SPR, KD on cyno TfR over KD on human TfR.
Description: as §1, §3
Test [8] shares this target. Put plainly: SPR, TfR captured by anti-His, Fab injected.
Description: as §1, §3
Test [9] deals with T2, human TfR extracellular domain with …. Put plainly: SPR, TfR captured by anti-His, Fab injected. The source holds these as a separate data set.
Description: as §1, §3
Test [10] addresses T1, cyno TfR extracellular domain …. Put plainly: SPR, TfR captured by anti-His, Fab injected.
Description: as §1
The target of test [11] is T2, human TfR extracellular domain with …. Put plainly: SPR, TfR captured by anti-His, Fab injected. This is another data set of the same source.
Description: as §1
Test [12] has as its target T1, cyno TfR extracellular domain …. Put plainly: SPR, biotinylated TfR on streptavidin, bispecific injected.
Description: (§4) Affinity of the bispecific antibodies for human and cynomolgus monkey TfR was determined using surface plasmon resonance (SPR) (Biacore™, GE Healthcare). Streptavidin (Sigma) was coupled onto four different flow cells of a series S BIACORE™ CM5 sensor chip (Biacore, Inc., Piscataway, N.J.) at between 2000 and 3000 RU. Immobilization was achieved by random coupling through amino groups using a protocol provided by the manufacturer. 10×HBS-P (Biacore, Inc., Piscataway, N.J.) was diluted in water and served as the dilution and running buffer. Purified and biotin labeled human or cyno TfR was captured, followed by a 3-fold dilution series of bispecific antibody that was injected at a flow rate of 30 ml/min using the single cycle kinetics method. Affinity constants were determined using a simple 1:1 Langmuir binding model or using a steady state model when kₒₙ or koff was beyond the detection limit. The equilibrium dissociation constant (KD) was calculated as the ratio of association rate constant (kon) and dissociation rate constant (koff).
Test [13] deals with T2, human TfR extracellular domain with …. The description is as above.
Description: as §4
The target in test [14] is TfR (species not stated, Table 15). Put plainly: SPR, Fab.

Where “and” joins values, the source holds several entries; their conditions need not be identical. Equal entries are not always repeated. Where two headings read alike, the source gives them in different places.

B1: Hu15G11.v5.Fab (Fab, V domains shown)
VH: EVQLVQSGAEVKKPGASVKVSCKASGYTFTSYWMHWVRQAPGQRLEWIGEINPTNGRTNYIEKFKSRATLTVDKSASTAYMELSSLRSEDTAVYYCARGTRAYHYWGQGTMVTVSS
VL: DIQMTQSPSSLSASVGDRVTITCRASDNLYSNLAWYQQKPGKSPKLLVYDATNLADGVPSRFSGSGSGTDYTLTISSLQPEDFATYYCQHFWGTPLTFGQGTKVEIK
notes: Fab
The term Kd denotes the constant that tells how readily two partners part at equilibrium. In general, koff refers to the first-order rate constant of dissociation. Read a high koff as fast dissociation. The term kon denotes a measure of how fast the partners come together. B1: the Kd in test [1] is 16 nM; in [2], 4.7 nM; in test [9], 4.7 nM. In addition, the Cyno/human ratio in [3] was found to be 4. The Cy/hu ratio came to 4 in [4] and 3.4 in test [7]. Also, the koff in [5] was 0.0127 s⁻¹; in test [6] it was 0.00474 s⁻¹; in test [8], 0.0218 s⁻¹; in [9] it was 0.00406 s⁻¹ and 0.00364 s⁻¹; in test [10], 0.0127 s⁻¹; in test [11] it was 0.00474 s⁻¹. Further, the kon in test [5] is 451000 M⁻¹ s⁻¹; in test [6], 674000 M⁻¹ s⁻¹; in test [8] it was 1.41e+06 M⁻¹ s⁻¹; in [9], 456000 M⁻¹ s⁻¹ and 776000 M⁻¹ s⁻¹; in test [10], 451000 M⁻¹ s⁻¹; in [11], 674000 M⁻¹ s⁻¹.

B2: Anti-TfR1/6266.hIgG1.N297G (bispecific antibody, V domains shown)
VH 1: EVQLVQSGAEVKKPGASVKVSCKASGYTFTSYWMHWVRQAPGQRLEWIGEINPTNGRTNYIEKFKSRATLTVDKSASTAYMELSSLRSEDTAVYYCARGTRAYHYWGQGTMVTVSS
VL 1: DIQMTQSPSSLSASVGDRVTITCRASDNLYSNLAWYQQKPGKSPKLLVYDATNLADGVPSRFSGSGSGTDYTLTISSLQPEDFATYYCQHFWGTPLTFGQGTKVEIK
VH 2: EVQLVQSGAEVKKPGSSVKVSCKASGGTLSGYGVSWVRQAPGQGLEWMGNIIPGFGTANYAQKFQGRVTITADESTSTAYMELSSLRSEDTAVYYCARSGGTKYGMLDVWGQGTMVTVSS
VL 2: EIVMTQSPATLSVSPGERATLSCRASQSVSSNLAWYQQKPGQAPRLLIYGASTRATGIPARFSGSGSGTEFTLTISSLQSEDFAVYYCQQLILWPPRTFGGGTKVEIK
notes: Knob-in-hole human IgG1 with N297G
In the case of B2, the dissociation constant (Kd) is 23.7 nM in test [12] and 9 nM in test [13].

B3: Hu15G11.HC52A Fab (Fab, V domains shown)
VH: EVQLVQSGAEVKKPGASVKVSCKASGYTFTSYWMHWVRQAPGQRLEWIGEIAPTNGRTNYIEKFKSRATLTVDKSASTAYMELSSLRSEDTAVYYCARGTRAYHYWGQGTMVTVSS
VL: DIQMTQSPSSLSASVGDRVTITCRASDNLYSNLAWYQQKPGKSPKLLVYDATNLADGVPSRFSGSGSGTDYTLTISSLQPEDFATYYCQHFWGTPLTFGQGTKVEIK
notes: Fab; also called antiTfR.52A.Fab; 15G11.52A Fab
Molecule B3 yielded a Kd in [14] of 55 nM.
